Test: yeast display, Sf9 membrane polyspecificity reagent, FACS + sequencing; frameworks hold sequencing errors
In short: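 Galactose induction of a Saccharomyces cerevisiae BJ5465 synthetic nanobody display library ran 36–48 hours. The cells were then stained for 1 hour at 4 °C with 10% biotinylated, detergent-solubilized Sf9 membrane reagent, pulled down on streptavidin microbeads and FACS-sorted into low and high (top ~1%) gates on expression and reagent-binding fluorescence. Labels for polyreactivity follow the gate of origin.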

Row | Sequence | polyreactivity (PSR sort gate)
1 | QVQLVESGGGLVQAGGSLRLSCAASGRTFYRNTMGWYRQAPGKERELVAAITGSGGITYYADSVKGRFTISRDNAKNTVYLKMNSLKPEDTAVYYCAAARYLGQGTQVTVSS | high polyreactivity
2 | QVQLVEAGGGLVQAGGSLRLSCAASGRTLYPYAMGWYRQAPGKERELVAAISSRGGSTYYADSVKGRFTISRDNAKNTVYLQMNSLKPEDTAVYYCAKSYRKILSITGLVPWTDYFWGQGTQVTVSS | low polyreactivity
3 | QVQLVLLGGGLVQAGGTLRVSCAPSGSIIYWKDRGWYRQAPGKERELDASITASGSSTYYADSVKGRFTISRDNGKNTVYLQMNSLLPEDTAVYYCNTSVFTYYDSAYDYWGQGTQVTVSS | low polyreactivity
4 | QVQLVESGGGLVQAGGSLRLSCAGSGRIFARNAMGWYRQAPGKARELVAGITWSGSSTYYADSVKGRFTISRDNAKNTVYLQMNRLKPEDTAVYYCAVDYYVGSLRIHHDYWGQGTQVTVSS | low polyreactivity
5 | QVQLVESGGGLVQAGGSLRLSCAASGSIFQKNAMGWYRQAPGKERELVAVITRGGTSTYYADSVKGRFTISRDNAKNTVYLQMNSLKAEDTAVYSCAAKADKRLDYWGQGTQVTVSS | low polyreactivity
6 | QVQLVESGGGLVQAGGSLRLSCAASGSIFSGNEMAWYRQAPGKERELVAAISSNGGRTYYADSVKGRFTISRDNEKNTVYLQMNSLKPEDTAVDYCAADSGKRRYGYYYWGQATQVTVSS | high polyreactivity
7 | QVQLVDSGGGLVQAGGSLRLSCAASGRTIHYYAMGWYRQAPGKEREVVAVISSGGSTYYADSVKGRFTISRDNAKNTVYLQMNSLKPEDTAVYYCAALSSRTYKTGYYTYDYWGQGTQVTVSS | low polyreactivity
8 | QVQLVESGGGLVQAGGSLRLSCAASGRILDYNAMGWYRQAPGKERELVADISGSGDSTYYADSVKGRFTISRDNAKNTVYLQMNSLKPEDTAVYYCAASGAWDWWLGPYDDYYWGQGTQVTVSS | low polyreactivity
9 | QVQLVESGGGLVQAGGSLRLSCAASGFIFTGYTMGWYRQAPGKERELVARISSGDSTKYADSVKGRFTISRDNAKNNVYLQMNSLKPEDTAVYYCAAYIRNARNGTTYDYWGQGTQVTVSS | high polyreactivity
10 | QVQLVESGGGLVQAGGSLRLSCAASGRTFVSTAMGWYRQAPGKERELVAGMSQRGGSTYYADSVKGRFTISRDNAKNTVYLHMNSMKPEDTAVYYCNAVSRAYFYGAYGPYTRFNYWGQGTQVTVSS | high polyreactivity
11 | QVQLVESGGGLVQAGGTLRLSCAASGSTFPPYAMGWYRQAPGKERELVAAISWRGSSTYYADSVKGRFTISRDNAKNTVYLQMNSLKPEDTAVYYCNADGGGSYWLYEHGFARDYWGQGTQVTVSS | high polyreactivity
12 | QVQLVESGGGLVQAGGSLRLSCAASGGIFDTYVMGWYRQAPGKETELVAAISSSGSTTYADSVKGRFTISRDNAKNTVYLQMNSLKPEDTAVYYCNADYSTIWRYDYWGQGTQVTVSS | low polyreactivity
13 | QVQLVESGGGLVQAGGSLRLSCAASGRTFSTYAMGWYRQAPGKERELVAGISRGGGSTYYADSVKGRFTISRDNAKNTVYLQMNSLKPEDTAVYYCAAKRPQYYVQYGYWGQGTQVTVSS | high polyreactivity
14 | QVQLVESGGGLVQAGGSLRLSCAASGSIVVVYDKGWYRQAPGKERELVAAISRRGGNTYYADSVKGRFTISRDNAKNTVYLQMNSLKPEDTAVYYCNAVRTRKAFDYWGQGTQVTVSS | low polyreactivity
15 | QVQLVESGGGLVQAGGSLRLSCAASGLIFYEHAMGWYRQAPGKERELVAAINYDGDSTYYADSVKGRFTISRDNAKITVYLQMNSLKPEDTAVYYCAADGGWVLFWMDYCGQGTQVTVSS | low polyreactivity
16 | QVQHEESGGGLVQAGGSLRLSCAASGRIFGTDAMGWFRQAPGKDRELVAAIRSSGDSTYYADSVKGRFTISRDNAKNTVYLQMNSLKPEDTAVYYCARTLRYYRPVLLVYRFGYWGQGTQVTVSS | high polyreactivity
17 | QVQLVESGGGLVQAGGSLRLSCAASGSTFYDYVMGWYRQAPGKERELFAAISRTGASTYYADSVKGRFTISRDNAKNTVYLQMNSLKPVDTAVYYCAADSDTVRYYYWGQGTQVTVSS | high polyreactivity
18 | QVQLVESGGGLVQAAGSLRLSCAASGFTFEKYVMGRYRQAPGKEREFVAAITRSGGRTYYADSVKGRFTISRDNAKNTVYLQMNSLKPEYTAVYYCAAAFSRSDTGGGSWGQGTQVTVSS | high polyreactivity
19 | QVQLVDSGGGLVQAGGSLRLSCAASGLSFLVNAMGWYRQAPGKERELVAAIDRDGGITYADSVKGRFTISRDNAKNTVYLQMNSLKPDDTAVSYCAADPSSYGRFTYDYWGQGTQVNVSS | low polyreactivity
20 | QVQLVESGGGLVQAGGSLRLSCAASGFTFTYYTMGWYRQAPGKERELVAGISRSGGSTYYADSVKGRFTISRDNAKNTVYLQMNSLKPEDTAVYYCAAVVRSYSDRYDYWGQGTQVTVSS | high polyreactivity
21 | QVELVESGGGLVQAGGSLRLSCAASGFIFYRYTMGWYRQAPGKEREVVAAISRRGGSTYYADSVKGRFTISRDNAKNTVYLQLNSLKPEDTAGYYCAARLGGYPRQGRYDYWGQGTQVTVSS | high polyreactivity
22 | QVQLVESGGGLVQAGGSLRLSCAASGRTLEHNAMGWYRQAPGKERELVAAITDGGASTYYADSVKGRFTISRENAKNTVYLQMNSLKPEDTAVYYFAADTYPTTSEFDYWGQGTQVTVSS | low polyreactivity

Row | Sequence | polyreactivity (PSR sort gate)
23 | QVQLVESGGGLVQAGGSLRLSCAASGSIFGPNAMGWYRQAPGKERELVAAITSGSSTKYADSVKGRFTISRDNATNTVYLQMNSLKPEDTAVYYCAASGTSTWKYGYWGQGSQVTVSS | low polyreactivity
24 | QVQLVESVGGLVQAGGSLRLSCAASGSSIPYYAMGWYRQAPGKERELVARITWRSTSTYADSVKGRFTISRDNAKNTVYLQMNSLKPEDTAVYYCAVRLLSTYIIEYEHWGQGTQVTLSS | low polyreactivity
25 | QVQLVESGGGLVQAGGSLRLSCAASGLIFAEYAMGWYRQAPGKERELVARITSGGSTDYADSVKGRFTISRDNAKNTVYLQMNSLKPEDTALYYCAARYYSQDNNASTASDFDYWGQGTQVTVSS | low polyreactivity
26 | QVQLVESGGGLVQAGGSLRLSCAASGRIFTRNAMGWYRQAPGKEREFVAAISYRGGSTYYADSVKGRFTISRDYAKNTVYLQMNSLKPEDTAVYYCAAEPYIQWVYYGGNGRRYGYWGQGTQVTVSS | high polyreactivity
27 | QVQLVESGGGLVQAGGSLRLSCAASGLIFSSNVMGWYRQAPGKERQLVAAIRQRGGSTRYADSVKGRFTISRDNAKNTVYLQMNSLKPEDTEVYYCAADTYYSHSWDSYDYWGQGTQVTVSS | low polyreactivity
28 | QVQLVESGGGLVQAGGSLRLSCAASGLIFYNYAMGWYRQAPGKERELVAAITSGGSTYYADSVKGGFTISRDNAKNTVYLQMNSLKPEDTAVYYWAADLTYTVPFDYWGQGTQVTVSS | high polyreactivity
29 | QVQLVESGGGLVQAGGSLRLSCAASGRIFPVNALGWYRQAPGKEREFVAAISYSGVSTRYADSVKGRFTISRDKAKNTVYLQMNSLKPEDTAVYYCAARMSVREDYWGQGTQVNVSS | high polyreactivity
30 | QVQLVESGGGLVQAGGSLRLSCAASGRTFPAYAMGWYRQAPGKERELVAAISYSGGRTRYADSVKGRFTISRDNAKNTVYLQMNSLKPEDTAVYDCNRVIPTQSLRDYYWGQGTQVTVSS | high polyreactivity
31 | QVQLVESGGGLVQAGGSLRLSCAASGSIFRVYAMGWYRQAPGKERELVAAISKSGSSTYYADSVKGRFTISRDNAKNTVYLQMNSLKPEDTAVYYCAARRVLGEYGYWGQGTQVTVSS | high polyreactivity
32 | QVQLVESGVGLVQAGGSLRLSCAASGSTFGRYAMGWYRQAPGKERELVARISWGGGSTYYADSVKGRFTISRDNAKNTVYILMISLKPEDSAVYDCATRVYRSAVSYDYWGQGTQVTVSS | high polyreactivity
33 | QVQLVESGGGLVQAGGSLRLSCAASGSIFSFYAMGWYRPAPGKERELVAAISYRGGSTYYADSVKGRFTISRDNAKNTVYIQMNSLKPVDSAVSYCAAARFPVFIQGYRMEYWGQGTQVTVSS | low polyreactivity
34 | QVQLVESGGGLVQAGGSLRLSCAASGRTFYYYVMGWYRQAPGKERELVAAINSGGNTNYADSVKGRFTISRDNAKNTVYLQMNSLKPEDTAVYYCAADHYRSFRYFESSSTHDYWGQGTQVNVSS | low polyreactivity
35 | QVQLEESGGGLVQAGGSLRLSCAASGFTFVYYAMGRYRQATGKERELVAAISWRDGDTYYADSVKGRFTISRDNAKNTVYVQMNSLKPEDTAVYYCAADYSYFKDDDWGQGTQVTVSS | low polyreactivity
36 | QVQLVESGGGLVQAGGSLRLSCAASGFTFARYAMGWYRQAPGKERELVAAITYSGGRTYYADSVKGRFTISRDNAKNTVYLQMNSLKPEDTAVYYCAARLSKRSGYYYWGQGTQVTVSS | high polyreactivity
37 | QVQLVESGGGLVQAGGSLRLSCAASGFTLDSNALGWYRQAPGKERELVAAISWDDGSTYYADSVKGRFTISRDNAKNTVYLQMNSLKPEDTAVYYCAADASDVYGDRPWFHYYWGYDYWGQGTQVTVSS | low polyreactivity
38 | QVQLVESGGGLVQAGGSLRLSCAASGFTFYRYAMGWYRQAPGKERELVAAITKSSGRTYYADSVKGRFTISRDNAQITVYLQINSLKPEDTAVYYCNAYYVALPPNMDYWGQGTQVTVSS | high polyreactivity
39 | QVQLVESGGGLVQAGGSLRLSCAASGSIFSGYVMGWYRQSPGKESELDAAISYSGGSKYYADSVKGRFTISRDNAKNTVYLQMNSLKPEDTAVYFCAAPGWLSQPRYRGYDYWGQGTQVSVSS | high polyreactivity
40 | QVHLVESGGGLVQEGGSLRLSCAASGFTFDSYAMGWYRQAPGKERELVASISSSGSTNYADSVKGRFTISRDNAKNTVYLQMNSLKPEDTGVYYCAAESRYPFIYEYWGQGTQVTVSS | low polyreactivity
41 | QVQLVESGGGLVQAGGSLRLSCAASGSIFRYYVMGWYRQAPGKERELVASITGSGGSTYYADSLKGRFTISRDNAKNTVYLQMNSLKPEDTAVYYCAASYRMRYGYWGQGTQVTVSS | high polyreactivity
42 | QVQLVESGGVLVQAGGSLRLSCAASGRIFRYYAMGWYRQAPGKERELVAAISSDGSTDYADSVKGRFTISRDNAKNTVYLLMNSLKPEDTAVYYCAASVVSYGHDYWGQGTQVTVSS | low polyreactivity
43 | QVQLVESGGGLVQAGGSLRLSCAASGITFVWNAMGWYRQAPGKERELVATISRGGVRTYYADSVKGRFTISRDNAKNTVYLQMNSLKPEDTAVYYCNVDETGVLVAYSFDYWGQGTQVTVSS | low polyreactivity

— the nanobody polyreactivity screen of Harvey et al. (2022)
